Source: patent US20030049702

Assays:
[1] = molecular target: T1, in vitro translated FADD (from pcDNA3-Flag-FADD), Q13158
T1 chain: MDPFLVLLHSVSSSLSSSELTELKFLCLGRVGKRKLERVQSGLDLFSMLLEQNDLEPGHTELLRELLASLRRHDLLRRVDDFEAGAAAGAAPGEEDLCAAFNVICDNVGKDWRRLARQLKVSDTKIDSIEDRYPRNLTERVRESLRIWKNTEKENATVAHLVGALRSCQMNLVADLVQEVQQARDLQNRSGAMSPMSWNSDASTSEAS

B1: in vitro translated pro-Casp8 (from pcDNA3Flag-pro-Casp8) (protein)
chain: MDFSRNLYDIGEQLDSEDLASLKFLSLDYIPQRKQEPIKDALMLFQRLQEKRMLEESNLSFLKELLFRINRLDLLITYLNTRKEEMERELQTPGRAQISAYRVMLYQISEEVSRSELRSFKFLLQEEISKCKLDDDMNLLDIFIEMEKRVILGEGKLDILKRVCAQINKSLLKIINDYEEFSKERSSSLEGSPDEFSNGEELCGVMTISDSPREQDSESQTLDKVYQMKSKPRGYCLIINNHNFAKAREKVPKLHSIRDRNGTHLDAGALTTTFEELHFEIKPHDDCTVEQIYEILKIYQLMDHSNMDCFICCILSHGDKGIIYGTDGQEAPIYELTSQFTGLKCPSLAGKPKVFFIQACQGDNYQKGIPVETDSEEQPYLEMDLSSPQTRYIPDEADFLLGMATVNNCVSYRNPAEGTWYIQSLCQSLRERCPRGDDILTILTEVNYEVSNKDDKKNMGKQMPQPTFTLRKKLVFPSD
caspase-8 activity (cleavage of Ac-IETD-AFC) in vitro [1]: ˜3-fold increase in caspase-8 activity
caspase-8 activity (cleavage of Ac-IETD-AFC) in vitro (DAP3-His6): increased protease activity by ˜5-fold
caspase-8 activity (cleavage of Ac-IETD-AFC) in vitro, DAP3 and FADD added together (DAP3-His6): ˜10-fold increase in caspase-8 activity
